Assay results reported in patent US20110318339A1.

How the values were obtained:
[1] = biological target: rHuman EGF R/Fc Chimera, CF (Cat# 344-ER, R&D Systems) (human) (UniProt P00533); assay: Multispot ECL; Fab 6 nM; blank 191
[2] = biological target: rHuman ErbB2/Fc Chimera, CF (Cat# 1129-ER, R&D Systems) (human) (UniProt P04626); assay: Multispot ECL; Fab 6 nM; blank 191
[3] = biological target: rHuman HGF R/c-MET/Fc Chimera, CF (Cat# 358-MT/CF, R&D Systems) (human) (UniProt P08581); assay: Multispot ECL; Fab 6 nM; blank 191
[4] = biological target: rHuman IGF-1 sR, (IGF-1 sR), CF (Cat# 391-GR, R&D Systems) (human) (UniProt P08069); assay: Multispot ECL; Fab 6 nM; blank 191
[5] = biological target: rHuman EGF R/Fc Chimera, CF (Cat# 344-ER, R&D Systems) (human) (UniProt P00533); assay: Multispot ECL; Fab 17 nM; blank 143
[6] = biological target: rHuman ErbB2/Fc Chimera, CF (Cat# 1129-ER, R&D Systems) (human) (UniProt P04626); assay: Multispot ECL; Fab 17 nM; blank 143
[7] = biological target: rHuman HGF R/c-MET/Fc Chimera, CF (Cat# 358-MT/CF, R&D Systems) (human) (UniProt P08581); assay: Multispot ECL; Fab 17 nM; blank 143
[8] = biological target: rHuman IGF-1 sR, (IGF-1 sR), CF (Cat# 391-GR, R&D Systems) (human) (UniProt P08069); assay: Multispot ECL; Fab 17 nM; blank 143
[9] = biological target: rHuman EGF R/Fc Chimera, CF (Cat# 344-ER, R&D Systems) (human) (UniProt P00533); assay: Multispot ECL; Fab 51 nM; blank 335
[10] = biological target: rHuman ErbB2/Fc Chimera, CF (Cat# 1129-ER, R&D Systems) (human) (UniProt P04626); assay: Multispot ECL; Fab 51 nM; blank 335
[11] = biological target: rHuman HGF R/c-MET/Fc Chimera, CF (Cat# 358-MT/CF, R&D Systems) (human) (UniProt P08581); assay: Multispot ECL; Fab 51 nM; blank 335
[12] = biological target: rHuman IGF-1 sR, (IGF-1 sR), CF (Cat# 391-GR, R&D Systems) (human) (UniProt P08069); assay: Multispot ECL; Fab 51 nM; blank 335
[13] = biological target: rHuman EGF R/Fc Chimera, CF (Cat# 344-ER, R&D Systems) (human) (UniProt P00533); assay: Multispot ECL; Fab 154 nM; blank 447
[14] = biological target: rHuman ErbB2/Fc Chimera, CF (Cat# 1129-ER, R&D Systems) (human) (UniProt P04626); assay: Multispot ECL; Fab 154 nM; blank 447
[15] = biological target: rHuman HGF R/c-MET/Fc Chimera, CF (Cat# 358-MT/CF, R&D Systems) (human) (UniProt P08581); assay: Multispot ECL; Fab 154 nM; blank 447
[16] = biological target: rHuman IGF-1 sR, (IGF-1 sR), CF (Cat# 391-GR, R&D Systems) (human) (UniProt P08069); assay: Multispot ECL; Fab 154 nM; blank 447
[17] = biological target: rHuman EGF R/Fc Chimera, CF (Cat# 344-ER, R&D Systems) (human) (UniProt P00533); assay: Multispot ECL; Fab 15 nM; blank 261
[18] = biological target: rHuman ErbB2/Fc Chimera, CF (Cat# 1129-ER, R&D Systems) (human) (UniProt P04626); assay: Multispot ECL; Fab 15 nM; blank 261
[19] = biological target: rHuman HGF R/c-MET/Fc Chimera, CF (Cat# 358-MT/CF, R&D Systems) (human) (UniProt P08581); assay: Multispot ECL; Fab 15 nM; blank 261
[20] = biological target: rHuman IGF-1 sR, (IGF-1 sR), CF (Cat# 391-GR, R&D Systems) (human) (UniProt P08069); assay: Multispot ECL; Fab 15 nM; blank 261
[21] = biological target: rHuman EGF R/Fc Chimera, CF (Cat# 344-ER, R&D Systems) (human) (UniProt P00533); assay: Multispot ECL; Fab 30 nM; blank 213
[22] = biological target: rHuman ErbB2/Fc Chimera, CF (Cat# 1129-ER, R&D Systems) (human) (UniProt P04626); assay: Multispot ECL; Fab 30 nM; blank 213
[23] = biological target: rHuman HGF R/c-MET/Fc Chimera, CF (Cat# 358-MT/CF, R&D Systems) (human) (UniProt P08581); assay: Multispot ECL; Fab 30 nM; blank 213
[24] = biological target: rHuman IGF-1 sR, (IGF-1 sR), CF (Cat# 391-GR, R&D Systems) (human) (UniProt P08069); assay: Multispot ECL; Fab 30 nM; blank 213
[25] = biological target: rHuman EGF R/Fc Chimera, CF (Cat# 344-ER, R&D Systems) (human) (UniProt P00533); assay: Multispot ECL; Fab 60 nM; blank 237
[26] = biological target: rHuman ErbB2/Fc Chimera, CF (Cat# 1129-ER, R&D Systems) (human) (UniProt P04626); assay: Multispot ECL; Fab 60 nM; blank 237
[27] = biological target: rHuman HGF R/c-MET/Fc Chimera, CF (Cat# 358-MT/CF, R&D Systems) (human) (UniProt P08581); assay: Multispot ECL; Fab 60 nM; blank 237
[28] = biological target: rHuman IGF-1 sR, (IGF-1 sR), CF (Cat# 391-GR, R&D Systems) (human) (UniProt P08069); assay: Multispot ECL; Fab 60 nM; blank 237
[29] = biological target: rHuman EGF R/Fc Chimera, CF (Cat# 344-ER, R&D Systems) (human) (UniProt P00533); assay: Multispot ECL; Fab 120 nM; blank 363
[30] = biological target: rHuman ErbB2/Fc Chimera, CF (Cat# 1129-ER, R&D Systems) (human) (UniProt P04626); assay: Multispot ECL; Fab 120 nM; blank 363
[31] = biological target: rHuman HGF R/c-MET/Fc Chimera, CF (Cat# 358-MT/CF, R&D Systems) (human) (UniProt P08581); assay: Multispot ECL; Fab 120 nM; blank 363
[32] = biological target: rHuman IGF-1 sR, (IGF-1 sR), CF (Cat# 391-GR, R&D Systems) (human) (UniProt P08069); assay: Multispot ECL; Fab 120 nM; blank 363
[33] = biological target: rHuman EGF R/Fc Chimera, CF (Cat# 344-ER, R&D Systems) (human) (UniProt P00533); assay: Multispot ECL; Fab 240 nM; blank 316
[34] = biological target: rHuman ErbB2/Fc Chimera, CF (Cat# 1129-ER, R&D Systems) (human) (UniProt P04626); assay: Multispot ECL; Fab 240 nM; blank 316
[35] = biological target: rHuman HGF R/c-MET/Fc Chimera, CF (Cat# 358-MT/CF, R&D Systems) (human) (UniProt P08581); assay: Multispot ECL; Fab 240 nM; blank 316
[36] = biological target: rHuman IGF-1 sR, (IGF-1 sR), CF (Cat# 391-GR, R&D Systems) (human) (UniProt P08069); assay: Multispot ECL; Fab 240 nM; blank 316
[37] = biological target: rHuman EGF R/Fc Chimera, CF (Cat# 344-ER, R&D Systems) (human) (UniProt P00533); assay: Multispot ECL; Fab 3.8 nM; blank 198
[38] = biological target: rHuman ErbB2/Fc Chimera, CF (Cat# 1129-ER, R&D Systems) (human) (UniProt P04626); assay: Multispot ECL; Fab 3.8 nM; blank 198
[39] = biological target: rHuman HGF R/c-MET/Fc Chimera, CF (Cat# 358-MT/CF, R&D Systems) (human) (UniProt P08581); assay: Multispot ECL; Fab 3.8 nM; blank 198
[40] = biological target: rHuman IGF-1 sR, (IGF-1 sR), CF (Cat# 391-GR, R&D Systems) (human) (UniProt P08069); assay: Multispot ECL; Fab 3.8 nM; blank 198
[41] = biological target: rHuman EGF R/Fc Chimera, CF (Cat# 344-ER, R&D Systems) (human) (UniProt P00533); assay: Multispot ECL; Fab 480 nM; blank 362
[42] = biological target: rHuman ErbB2/Fc Chimera, CF (Cat# 1129-ER, R&D Systems) (human) (UniProt P04626); assay: Multispot ECL; Fab 480 nM; blank 362
[43] = biological target: rHuman HGF R/c-MET/Fc Chimera, CF (Cat# 358-MT/CF, R&D Systems) (human) (UniProt P08581); assay: Multispot ECL; Fab 480 nM; blank 362
[44] = biological target: rHuman IGF-1 sR, (IGF-1 sR), CF (Cat# 391-GR, R&D Systems) (human) (UniProt P08069); assay: Multispot ECL; Fab 480 nM; blank 362
[45] = biological target: rHuman EGF R/Fc Chimera, CF (Cat# 344-ER, R&D Systems) (human) (UniProt P00533); assay: Multispot ECL; Fab 7.5 nM; blank 217
[46] = biological target: rHuman ErbB2/Fc Chimera, CF (Cat# 1129-ER, R&D Systems) (human) (UniProt P04626); assay: Multispot ECL; Fab 7.5 nM; blank 217
[47] = biological target: rHuman HGF R/c-MET/Fc Chimera, CF (Cat# 358-MT/CF, R&D Systems) (human) (UniProt P08581); assay: Multispot ECL; Fab 7.5 nM; blank 217
[48] = biological target: rHuman IGF-1 sR, (IGF-1 sR), CF (Cat# 391-GR, R&D Systems) (human) (UniProt P08069); assay: Multispot ECL; Fab 7.5 nM; blank 217

B1: Fab VH5-51_IGHD5-18*01>3_IGHJ4*01 & V3-4_IGLJ1*01 (Fab, V domains shown)
VH: EVQLVQSGAEVKKPGESLKISCKGSGYSFTSYWIGWVRQMPGKGLEWMGIIYPGDSDTRYSPSFQGQVTISADKSISTAYLQWSSLKASDTAMYYCARRGYSYGYDYFDYWGQGTLVTVSS
VL: QTVVTQEPSFSVSPGGTVTLTCGLSSGSVSTSYYPSWYQQTPGQAPRTLIYSTNTRSSGVPDRFSGSILGNKAALTITGAQADDESDYYCVLYMGSGISYVFGTGTKVTVL
ECL signal [1]: 742
ECL signal [2]: 873
ECL signal [3]: 831
ECL signal [4]: 854
ECL signal [5]: 805
ECL signal [6]: 1030
ECL signal [7]: 914
ECL signal [8]: 872
ECL signal [9]: 816
ECL signal [10]: 1250
ECL signal [11]: 1040
ECL signal [12]: 1050
ECL signal [13]: 1400
ECL signal [14]: 1590
ECL signal [15]: 1520
ECL signal [16]: 1400

B2: Fab VH6-1_IGHD3-3*01_IGHJ4*01 & V4-3_IGLJ4*01 (Fab, V domains shown)
VH: QVQLQQSGPGLVKPSQTLSLTCAISGDSVSSNSAAWNWIRQSPSRGLEWLGRTYYRSKWYNDYAVSVKSRITINPDTSKNQFSLQLNSVTPEDTAVYYCAREYYDFWSGYYTDYFDYWGQGTLVTVSS
VL: QPVLTQPTSLSASPGASARLTCTLRSGINLGSYRIFWYQQKPESPPRYLLSYYSDSSKHQGSGVPSRFSGSKDASSNAGILVISGLQSEDEADYYCMIWHSSASFVFGGGTQLIIL
ECL signal [17]: 584
ECL signal [18]: 713
ECL signal [19]: 694
ECL signal [20]: 705
ECL signal [21]: 585
ECL signal [22]: 726
ECL signal [23]: 640
ECL signal [24]: 697
ECL signal [25]: 679
ECL signal [26]: 777
ECL signal [27]: 623
ECL signal [28]: 654
ECL signal [29]: 658
ECL signal [30]: 822
ECL signal [31]: 785
ECL signal [32]: 813
ECL signal [33]: 690
ECL signal [34]: 833
ECL signal [35]: 834
ECL signal [36]: 625
ECL signal [37]: 511
ECL signal [38]: 714
ECL signal [39]: 519
ECL signal [40]: 463
ECL signal [41]: 877
ECL signal [42]: 965
ECL signal [43]: 951
ECL signal [44]: 741
ECL signal [45]: 582
ECL signal [46]: 695
ECL signal [47]: 558
ECL signal [48]: 642
